# From publication PMC5562816, “Rap1 and Cdc13 have complementary roles in preventing exonucleolytic degradation of telomere 5′ ends”
# T1: Rap1 (Naumovozyma castellii, UniProt Q96VU6 1-826)
# T1 sequence: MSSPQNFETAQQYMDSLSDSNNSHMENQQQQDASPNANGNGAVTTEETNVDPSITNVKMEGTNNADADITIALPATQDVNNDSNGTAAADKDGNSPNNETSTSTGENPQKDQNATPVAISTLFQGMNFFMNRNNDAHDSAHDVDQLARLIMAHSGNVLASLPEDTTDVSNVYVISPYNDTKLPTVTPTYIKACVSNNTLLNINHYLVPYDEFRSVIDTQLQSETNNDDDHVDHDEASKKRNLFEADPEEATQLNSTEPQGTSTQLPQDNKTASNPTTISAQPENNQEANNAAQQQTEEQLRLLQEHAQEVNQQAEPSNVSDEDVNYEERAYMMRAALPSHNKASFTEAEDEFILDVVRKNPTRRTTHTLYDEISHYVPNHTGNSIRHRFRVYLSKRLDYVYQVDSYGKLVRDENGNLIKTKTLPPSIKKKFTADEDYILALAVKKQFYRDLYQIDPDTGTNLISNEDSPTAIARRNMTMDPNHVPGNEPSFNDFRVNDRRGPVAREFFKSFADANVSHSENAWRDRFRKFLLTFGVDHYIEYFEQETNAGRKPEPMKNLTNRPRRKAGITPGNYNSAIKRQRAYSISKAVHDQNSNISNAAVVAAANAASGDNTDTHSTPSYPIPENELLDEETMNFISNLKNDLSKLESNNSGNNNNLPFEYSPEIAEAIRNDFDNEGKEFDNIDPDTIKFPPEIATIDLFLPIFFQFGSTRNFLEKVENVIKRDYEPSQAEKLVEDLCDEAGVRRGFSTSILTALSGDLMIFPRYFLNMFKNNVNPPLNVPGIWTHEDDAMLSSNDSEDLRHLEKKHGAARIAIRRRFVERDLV
# Molecular target: T1, Rap1
# Assay: EMSA; EMSA: 10 fmol probe, 1.5 ug competitor mix (E. coli DNA, salmon sperm DNA, yeast tRNA), 1x lambda-exonuclease buffer (67 mM glycine-KOH pH 9.4, 2.5 (unit not given) MgCl2, BSA 50 ug/ul as printed), 8% glycerol, 15 ul, 25 C 15 min; gel 6% in 1x TBE at 4 C
# Conditions: protein: recombinant; tags: N-terminal 6xHis; label: 32P 3'-deoxy-ATP added to 3' end of C-strand; 3' overhang 9 nt; other end blunt
binder,measurement,value
"D17S9m (mixed, 5'-phosphate on C-strand (DEPA substrate)) DNA 1: GTCACACGTCACACTCTGGGACTCTCCGTGTCTGGGTGTC DNA 2: ACACGGAGAGTCCCAGAGTGTGACGTGTGAC",binding result,no binding
